Experimental data from article doi:10.1101/2025.06.29.662139 (bioRxiv, 2025).

Target: human CD33 protein (R&D Systems) (Homo sapiens, UniProt P20138)
Assay: SPR

human CD33 protein (R&D Systems), sequence (P20138 18-259): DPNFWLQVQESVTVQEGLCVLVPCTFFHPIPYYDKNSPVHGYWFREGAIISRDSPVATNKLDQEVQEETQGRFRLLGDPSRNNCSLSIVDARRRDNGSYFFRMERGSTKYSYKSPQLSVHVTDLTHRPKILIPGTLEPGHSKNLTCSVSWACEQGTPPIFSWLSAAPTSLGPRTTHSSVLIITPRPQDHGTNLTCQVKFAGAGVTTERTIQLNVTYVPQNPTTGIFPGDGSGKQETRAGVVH

Binder	fold reduction in binding affinity (KD) against the lead candidate [fold]	binding result	fold loss of binding affinity against the parent antibody [fold]
anti-CD33 antibody variant S11 (antibody, V domains shown) VH: QVQLVQSGAEVKKPGSSVKVSCKASGGIFSNHRISWVRQAPGQGLEWMGGIIPIFGTANYAQKFQGRVTITADESTSTAFMELSSLRSEDTAVYYCARAWADVFDIWGQGTMVTVSS VL: EIVLTQSPLSLPVTPGEPASISCRSSQSLLHSNGYNYLDWYLQKPGQSPQLLIYLGVNSVSGVPDRFSGSGSGTDFTLKISRVEAEDVGVYYCMQALQTPWTFGQGTKVEIK	1.4	–	–
anti-CD33 antibody W96F (antibody, V domains shown) VH: QVQLVQSGAEVKKPGSSVKVSCKASGGIFSNHAISWVRQAPGQGLEWMGGIIPIFGTANYAQKFQGRVTITADESTSTAFMELSSLRSEDTAVYYCAREFADVFDIWGQGTMVTVSS VL: EIVLTQSPLSLPVTPGEPASISCRSSQSLLHSNGYNYLDWYLQKPGQSPQLLIYLGVNSVSGVPDRFSGSGSGTDFTLKISRVEAEDVGVYYCMQALQTPWTFGQGTKVEIK	–	no binding	> 1000
